Data on 65 substances can be found in patent US10738094B2, “Peptides and combination of peptides for use in immunotherapy against ovarian cancer and other cancers” (immatics biotechnologies GmbH, priority 2015, dated 2020).

This test has as its target HLA-A*02:01 (Homo sapiens, UniProt P04439, D140Y/D185E/D98H/E176V/E277Q/G131W/G231S/I119V/I121R/I166T/I218V/L300P/L318F/N151K/N90K/P208A/P217A/Q86G/Q94H/R138H/R169H/T345S). The test is described as follows: MHC binding assay (UV-ligand exchange, beta2m ELISA). The note with it: binding to HLA-A*02:01 ranged by peptide exchange yield (UV-ligand exchange, β2m ELISA). The text has this:
Candidate peptides for T cell based therapies according to the present invention were further tested for their MHC binding capacity (affinity). The individual peptide-MHC complexes were produced by UV-ligand exchange, where a UV-sensitive peptide is cleaved upon UV-irradiation, and exchanged with the peptide of interest as analyzed. Only peptide candidates that can effectively bind and stabilize the peptide-receptive MHC molecules prevent dissociation of the MHC complexes. To determine the yield of the exchange reaction, an ELISA was performed based on the detection of the light chain (β2m) of stabilized MHC complexes. The assay was performed as generally described in Rodenko et al. (Rodenko et al., 2006).
96 well MAXISorp plates (NUNC) were coated over night with 2 ug/ml streptavidin in PBS at room temperature, washed 4× and blocked for 1 h at 37° C. in 2% BSA containing blocking buffer. […] Peptide-MHC monomers of the UV-exchange reaction were diluted 100 fold in blocking buffer. Samples were incubated for 1 h at 37° C., washed four times, incubated with 2 ug/ml HRP conjugated anti-β2m for 1 h at 37° C., washed again and detected with TMB solution that is stopped with […]. Absorption was measured at 450 nm. Candidate peptides that show a high exchange yield (preferably higher than 50%, most preferred higher than 75%) are generally preferred for a generation and production of antibodies or fragments thereof, and/or T cell receptors or fragments thereof, as they show sufficient avidity to the MHC molecules and prevent dissociation of the MHC complexes.
For orientation: An ELISA detects its analyte on a solid surface through an enzyme-linked reagent.
Regarding “463 (SLVESHLSDQLTL; listed as Homo sapiens) [compound 463]”, the Peptide exchange entry is reported as ““+++” (≥50 = +++)”.

Regarding “619 (ALQDRVPLA; listed as Homo sapiens) [compound 619]”, the Peptide exchange entry is ““+++” (≥50 = +++)”.

For the substance “116 (YHIDEEVGF; listed as Homo sapiens) [compound 116]”, the Peptide exchange entry is ““+” (≥10% = +)”.

For the substance “101 (ILVGGGALATV; listed as Homo sapiens) [compound 101]”, the Peptide exchange result is ““+++” (≥50 = +++)”.

Consider “97 (SLINGSFLV; listed as Homo sapiens) [compound 97]”, for which the Peptide exchange entry is given as ““+++” (≥50 = +++)”.

For the substance “41 (SLMPHIPGL; listed as Homo sapiens) [compound 41]”, the Peptide exchange entry was ““+++” (≥50 = +++)”.

Turning to “282 (LLADVVPTT; listed as Homo sapiens) [compound 282]”, the Peptide exchange entry is listed as ““+++” (≥50 = +++)”.

Take “328 (ALNDQVFEI; listed as Homo sapiens) [compound 328]”: the Peptide exchange result was ““+++” (≥50 = +++)”.

In the case of “246 (LLWEVVSQL; listed as Homo sapiens) [compound 246]”, the Peptide exchange result is recorded as ““+++” (≥50 = +++)”.

In the case of “509 (FLFDTKPLIV; listed as Homo sapiens) [compound 509]”, the Peptide exchange result is given as ““+++” (≥50 = +++)”.

With “329 (FLVTLNNVEV; listed as Homo sapiens) [compound 329]”, the Peptide exchange entry is reported as ““++++” (≥75% = ++++)”.

Regarding “298 (VMITKLVEV; listed as Homo sapiens) [compound 298]”, the Peptide exchange entry was ““+++” (≥50 = +++)”.

With “473 (AMATESILHFA; listed as Homo sapiens) [compound 473]”, the Peptide exchange result is on record as ““+++” (≥50 = +++)”.

For “227 (ALMNTLLYL; listed as Homo sapiens) [compound 227]”, the Peptide exchange entry is given as ““++” (≥20% = ++)”.

“52 (FLLAHGLGFLL; listed as Homo sapiens) [compound 52]”: the Peptide exchange result is reported as ““++++” (≥75% = ++++)”.

With “501 (LLDPNVKSIFV; listed as Homo sapiens) [compound 501]”, the Peptide exchange entry was ““+++” (≥50 = +++)”.

For “454 (KLPPPPPQA; listed as Homo sapiens) [compound 454]”, the Peptide exchange entry was ““+++” (≥50 = +++)”.

As to “372 (TMLLNIPLV; listed as Homo sapiens) [compound 372]”, the Peptide exchange result was ““++” (≥20% = ++)”.

With “465 (QLCDLNAEL; listed as Homo sapiens) [compound 465]”, the Peptide exchange entry was ““+++” (≥50 = +++)”.

“348 (ILLDVKTRL; listed as Homo sapiens) [compound 348]”: the Peptide exchange result is given as ““++++” (≥75% = ++++)”.

As to “94 (YLIDIKTIAI; listed as Homo sapiens) [compound 94]”, the Peptide exchange entry is ““++” (≥20% = ++)”.

Take “326 (FLPEALDFV; listed as Homo sapiens) [compound 326]”: the Peptide exchange result is ““+++” (≥50 = +++)”.

Turning to “128 (YLFDDPLSAV; listed as Homo sapiens) [compound 128]”, the Peptide exchange result is reported as ““++” (≥20% = ++)”.

Take “26 (ALLELAEEL; listed as Homo sapiens) [compound 26]”: the Peptide exchange result was ““+++” (≥50 = +++)”.

“159 (GLVGNPLPSV; listed as Homo sapiens) [compound 159]”: the Peptide exchange entry is ““++++” (≥75% = ++++)”.

Regarding “571 (LLLTTIPQI; listed as Homo sapiens) [compound 571]”, the Peptide exchange entry is ““+++” (≥50 = +++)”.

Consider “107 (FLQPVDDTQHL; listed as Homo sapiens) [compound 107]”, for which the Peptide exchange entry is on record as ““+++” (≥50 = +++)”.

Turning to “407 (YLMDLINFL; listed as Homo sapiens) [compound 407]”, the Peptide exchange result is reported as ““+++” (≥50 = +++)”.

With “285 (QLLHVGVTV; listed as Homo sapiens) [compound 285]”, the Peptide exchange entry is listed as ““+++” (≥50 = +++)”.

Consider “364 (LLQNEQFEL; listed as Homo sapiens) [compound 364]”, for which the Peptide exchange result is listed as ““+++” (≥50 = +++)”.

As to “600 (ALAAPDIVPAL; listed as Homo sapiens) [compound 600]”, the Peptide exchange result is ““+++” (≥50 = +++)”.

With “295 (VLDRESPNV; listed as Homo sapiens) [compound 295]”, the Peptide exchange result was ““+++” (≥50 = +++)”.

“177 (YLLPEEYTSTL; listed as Homo sapiens) [compound 177]”: the Peptide exchange result is ““++++” (≥75% = ++++)”.

As for “598 (FLFPHSVLV; listed as Homo sapiens) [compound 598]”, the Peptide exchange entry is ““+++” (≥50 = +++)”.

“130 (FLWNGEDSALL; listed as Homo sapiens) [compound 130]”: the Peptide exchange entry was ““+++” (≥50 = +++)”.

For the substance “430 (HLYSSIEHLTT; listed as Homo sapiens) [compound 430]”, the Peptide exchange entry is ““+++” (≥50 = +++)”.

As for “621 (VLMDRLPSLL; listed as Homo sapiens) [compound 621]”, the Peptide exchange result was ““++++” (≥75% = ++++)”.

Turning to “556 (FLTDLEDLTL; listed as Homo sapiens) [compound 556]”, the Peptide exchange entry is listed as ““+++” (≥50 = +++)”.

Consider “464 (ALNDCIYSV; listed as Homo sapiens) [compound 464]”, for which the Peptide exchange result is given as ““+++” (≥50 = +++)”.

Consider “64 (YAAPGGLIGV; listed as Homo sapiens) [compound 64]”, for which the Peptide exchange result is ““++” (≥20% = ++)”.

Regarding “551 (KLYESLLPFA; listed as Homo sapiens) [compound 551]”, the Peptide exchange entry is ““+++” (≥50 = +++)”.

For the substance “220 (LLQKFVPEI; listed as Homo sapiens) [compound 220]”, the Peptide exchange entry is ““++” (≥20% = ++)”.

In the case of “609 (ALWKQLLEL; listed as Homo sapiens) [compound 609]”, the Peptide exchange entry is listed as ““+++” (≥50 = +++)”.

As to “620 (KLLNKIYEA; listed as Homo sapiens) [compound 620]”, the Peptide exchange result was ““++++” (≥75% = ++++)”.

Take “50 (SLSELEALM; listed as Homo sapiens) [compound 50]”: the Peptide exchange result is ““+++” (≥50 = +++)”.

On to “616 (VLIDEVESL; listed as Homo sapiens) [compound 616]”, for which the Peptide exchange entry is ““+++” (≥50 = +++)”.

With “134 (YLQELIFSV; listed as Homo sapiens) [compound 134]”, the Peptide exchange result is listed as ““+++” (≥50 = +++)”.

On to “492 (SLFDGFADGLGV; listed as Homo sapiens) [compound 492]”, for which the Peptide exchange result is ““+++” (≥50 = +++)”.

Regarding “90 (TLLQIIETV; listed as Homo sapiens) [compound 90]”, the Peptide exchange entry is given as ““+++” (≥50 = +++)”.

“398 (KLLEEDGTIITL; listed as Homo sapiens) [compound 398]”: the Peptide exchange entry is ““++” (≥20% = ++)”.

Turning to “77 (ILVEADGAWVV; listed as Homo sapiens) [compound 77]”, the Peptide exchange result is on record as ““++++” (≥75% = ++++)”.

In the case of “125 (VQIHQVAQV; listed as Homo sapiens) [compound 125]”, the Peptide exchange entry is ““+++” (≥50 = +++)”.

In the case of “442 (GLLGGGGVLGV; listed as Homo sapiens) [compound 442]”, the Peptide exchange entry is ““+++” (≥50 = +++)”.

As for “431 (SLVNVVPKL; listed as Homo sapiens) [compound 431]”, the Peptide exchange entry is ““++” (≥20% = ++)”.

For the substance “190 (FLSSLTETI; listed as Homo sapiens) [compound 190]”, the Peptide exchange entry is recorded as ““+++” (≥50 = +++)”.

On to “497 (GLLEKLTAI; listed as Homo sapiens) [compound 497]”, for which the Peptide exchange entry is given as ““+++” (≥50 = +++)”.

With “543 (GLLPTPITQQASL; listed as Homo sapiens) [compound 543]”, the Peptide exchange entry is on record as ““+++” (≥50 = +++)”.

In the case of “89 (YILPTETIYV; listed as Homo sapiens) [compound 89]”, the Peptide exchange entry is reported as ““++++” (≥75% = ++++)”.

For the substance “69 (FQLDPSSGVLVTV; listed as Homo sapiens) [compound 69]”, the Peptide exchange result is ““+++” (≥50 = +++)”.

Regarding “376 (AMFESSQNVLL; listed as Homo sapiens) [compound 376]”, the Peptide exchange entry was ““++” (≥20% = ++)”.

As for “359 (YLLPESVDL; listed as Homo sapiens) [compound 359]”, the Peptide exchange result is given as ““+++” (≥50 = +++)”.

Regarding “352 (SLLELLHIYV; listed as Homo sapiens) [compound 352]”, the Peptide exchange result is ““+++” (≥50 = +++)”.

In the case of “594 (IMLKGDNITL; listed as Homo sapiens) [compound 594]”, the Peptide exchange entry is ““+++” (≥50 = +++)”.

As to “469 (YLASDEITTV; listed as Homo sapiens) [compound 469]”, the Peptide exchange entry was ““+++” (≥50 = +++)”.

Turning to “396 (ALLPDLPAL; listed as Homo sapiens) [compound 396]”, the Peptide exchange result is ““+++” (≥50 = +++)”.
